The values that follow come from patent US20250122303A1 (HUMMINGBIRD BIOSCIENCE PTE, published 2025).

As a reminder, the Kd is the constant that tells how readily two partners part at equilibrium. Low values mean a tighter complex, high ones a looser complex. Broadly, the kon is the second-order rate constant of association. Read a low kon as slow association. The term koff denotes the first-order rate constant of dissociation. Lower therefore signals slow dissociation.

Assay [1] concerns the target T1, human HER3 expressed on cells (HEK293 HER3 O/E cells) (human, UniProt P21860 20-1342).
T1 construct: Also used here for HER3 on U2OS cells of the PathHunter kit and on cancer cell lines; also called HEK293 cells transfected with vector encoding human HER3; human HER3-expressing cells
The assay can be described thus: flow cytometry, HEK293 cells overexpressing human HER3, 20 ug/ml antibody, FITC anti-Fc secondary; same antibody on WT HEK293: 17.31. The protocol:
(§1) The cells were washed thrice with FACS buffer (PBS with 5 mM EDTA and 0.5% BSA) and resuspended in FITC-conjugated anti-FC antibody (Invitrogen, USA) for 40 min at 2-8° C. Cells were washed again and resuspended in 200 μL of FACS flow buffer (PBS with 5 mM EDTA) for flow cytometric analysis using MACSQuant 10 (Miltenyi Biotec, Germany). After acquisition, all raw data were analyzed using Flowlogic software. Cells were gated using forward and side scatter profile percentage of positive cells was determined for native and overexpressing cell populations.
On the technique in general: A flow cytometer gives signals particle by particle.

The target of a further assay is T2, human EGFR (human, UniProt P00533 25-645).
T2 construct: also called human HER1 (EGFR) (Sino Biological Inc.)
The assay can be described thus: ELISA, plate coated with 0.1 ug/ml human EGFR, antibody titrated, absorbance 450 nm. On the procedure: (§2) ELISAs were used to determine the binding specificity of the antibodies. The antibodies were analysed for binding to human HER3 polypeptide, as well as respective mouse, rat and monkey homologues of HER3 (Sino Biological Inc., China). The antibodies were also analysed for their ability to bind to human EGFR and human HER2 (Sino Biological Inc., China).
(§3) ELISAs were carried out according to standard protocols. Briefly, 96-well plates (Nunc, Denmark) were coated with 0.1 μg/ml of target polypeptide in phosphate-buffered saline (PBS) for 16 h at 4° C. After blocking for 1 h with 1% BSA in Tris buffer saline (TBS) at room temperature, the anti-HER3 antibody was serially diluted with the highest concentration being 10 μg/ml, and added to the plate. Post 1 h incubation at room temperature, plates were washed three times with TBS containing 0.05% Tween 20 (TBS-T) and were then incubated with a HRP-conjugated […] antibody (Life Technologies, Inc., USA) for 1 h at room temperature. After washing, plates were developed with colorimetric detection substrate 3,3′,5,5′-tetramethylbenzidine (Turbo-TMB; Pierce, USA) for 10 min. The reaction was stopped with 2M H₂SO₄, and OD was measured at 450 nm.

Assay [2] concerns the target T1, human HER3 expressed on cells (HEK293 …). In words: flow cytometry, HEK293 cells overexpressing human HER3, 20 ug/ml antibody, FITC anti-Fc secondary; same antibody on WT HEK293: 17.31. The protocol: as §1
The source holds these as a separate data set.

In assay [3] the target is T3, His-tagged human HER3 (human, UniProt P21860 20-643).
T3 construct: Antigen of the BLI experiments and of the HER2-Fc dimerisation ELISA; also called HER3 His; not shown: His tag
The assay can be described thus: BLI (Octet QK384), antibody on anti-human IgG capture tips, His-tagged human HER3 in solution, global one-site fit. The protocol: (§4) The anti-HER3 antibody clones in IgG1 format were analysed for binding affinity to human HER3. Bio-Layer Interferometry (BLI) experiments were performed using the Octet QK384 system (ForteBio). anti-Human IgG Capture (AHC) Octet sensor tips (Pall ForteBio, USA) were used to anti-HER3 antibodies (25 nM). All measurements were performed at 25° C. with agitation at 1000 rpm. […] Sensograms were referenced for buffer effects and then fitted using the Octet QK384 user software (Pall ForteBio, USA). Kinetic responses were subjected to a global fitting using a one site binding model to obtain values for association (Kₒₙ), dissociation (Koff) rate constants and the equilibrium dissociation constant (KD). Only curves that could be reliably fitted with the software (R²>0.90) were included in the analysis.
(In BLI a coated tip is dipped into the sample, and binding shifts an interference pattern.)

For another assay, the target named is T4, rat HER3 (rat, UniProt Q62799 20-641, limits assumed).
T4 construct: also called rat homologue of HER3 (Sino Biological Inc.); R. norvegicus HER3
T4 sequence (Q62799 20-641 limits assumed): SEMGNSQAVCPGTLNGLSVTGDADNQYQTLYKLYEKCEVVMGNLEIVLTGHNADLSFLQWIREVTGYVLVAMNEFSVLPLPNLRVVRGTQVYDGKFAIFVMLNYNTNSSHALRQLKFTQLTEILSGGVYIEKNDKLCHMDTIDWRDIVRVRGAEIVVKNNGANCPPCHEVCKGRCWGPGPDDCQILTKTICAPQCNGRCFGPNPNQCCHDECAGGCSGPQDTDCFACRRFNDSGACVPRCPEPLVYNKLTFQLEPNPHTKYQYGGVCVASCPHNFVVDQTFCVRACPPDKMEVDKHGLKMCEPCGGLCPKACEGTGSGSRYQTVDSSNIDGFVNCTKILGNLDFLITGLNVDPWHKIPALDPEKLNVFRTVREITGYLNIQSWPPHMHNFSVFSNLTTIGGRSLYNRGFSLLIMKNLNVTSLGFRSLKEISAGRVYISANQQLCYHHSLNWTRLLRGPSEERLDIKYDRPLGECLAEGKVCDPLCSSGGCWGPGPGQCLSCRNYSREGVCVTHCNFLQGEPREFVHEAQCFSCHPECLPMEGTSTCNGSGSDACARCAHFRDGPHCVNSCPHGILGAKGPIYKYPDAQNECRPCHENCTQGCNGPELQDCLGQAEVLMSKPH
The assay can be described thus: ELISA, plate coated with 0.1 ug/ml rat HER3, antibody titrated, absorbance 450 nm. The protocol: as §2, §3
In general terms: In an ELISA, binding on a coated surface is turned into a signal by an enzyme label.

For a further assay, the target named is T5, mouse HER3 (mouse, UniProt Q61526 20-641).
T5 construct: also called mouse homologue of HER3 (Sino Biological Inc.); M. musculus HER3
T5 sequence (Q61526 20-641 limits assumed): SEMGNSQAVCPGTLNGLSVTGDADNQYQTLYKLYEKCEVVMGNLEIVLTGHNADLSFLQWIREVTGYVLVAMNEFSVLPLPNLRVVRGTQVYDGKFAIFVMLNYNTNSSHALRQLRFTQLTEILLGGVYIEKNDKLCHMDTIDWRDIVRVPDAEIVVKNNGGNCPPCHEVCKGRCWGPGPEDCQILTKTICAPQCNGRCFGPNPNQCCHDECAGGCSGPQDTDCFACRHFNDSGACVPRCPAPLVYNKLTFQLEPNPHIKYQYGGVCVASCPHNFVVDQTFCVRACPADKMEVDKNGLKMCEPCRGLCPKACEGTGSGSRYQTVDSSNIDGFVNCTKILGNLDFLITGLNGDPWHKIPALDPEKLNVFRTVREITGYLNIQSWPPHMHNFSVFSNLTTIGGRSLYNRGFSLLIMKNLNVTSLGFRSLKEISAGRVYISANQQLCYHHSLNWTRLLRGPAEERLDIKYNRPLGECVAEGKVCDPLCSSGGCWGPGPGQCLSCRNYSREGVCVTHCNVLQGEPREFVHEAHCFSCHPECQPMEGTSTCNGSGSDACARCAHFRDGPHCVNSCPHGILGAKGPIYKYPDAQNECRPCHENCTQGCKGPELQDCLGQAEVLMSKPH
In words: ELISA, plate coated with 0.1 ug/ml mouse HER3, antibody titrated, absorbance 450 nm. The protocol:
as §2, §3

The target of the next assay is T6, human HER2 (human, UniProt P04626 23-652).
T6 construct: also called human HER2 (Sino Biological Inc.)
In words: ELISA, plate coated with 0.1 ug/ml human HER2, antibody titrated, absorbance 450 nm. The protocol: as §2, §3

In assay [4] the target is T3, His-tagged human HER3. In words: BLI (Octet QK384), antibody on anti-human IgG capture tips, His-tagged human HER3 in solution, global 1:1 fit, R^2 = 0.9946, kon Error 5.99E+03; Response 0.119 / 0.2877 / 0.4777 / 0.6639 at 35 / 69 / 139 / 278 nM. The protocol:
as §4

Assay [5] concerns the target T3, His-tagged human HER3. In words: BLI (Octet QK384), antibody on anti-human IgG capture tips, His-tagged human HER3 35-278 nM, global 1:1 fit. The protocol: as §4
Assay [6] deals with T3, His-tagged human HER3. The assay can be described thus: BLI (Octet QK384), antibody on anti-human IgG capture tips, His-tagged human HER3 in solution, global 1:1 fit, R^2 = 0.9915, kon Error 7.36E+03; Response 0.114 / 0.2569 / 0.4134 / 0.5768 at 35 / 69 / 139 / 278 nM. The protocol:
as §4

The target of assay [7] is T3, His-tagged human HER3. In words: BLI (Octet QK384), antibody on anti-human IgG capture tips, His-tagged human HER3 in solution, global 1:1 fit, R^2 = 0.9957, kon Error 3.54E+03; Response 0.0338 / 0.0911 / 0.1967 / 0.3885 at 35 / 69 / 139 / 278 nM. On the procedure:
as §4

For assay [8], the target named is T3, His-tagged human HER3. The assay can be described thus: BLI (Octet QK384), antibody on anti-human IgG capture tips, His-tagged human HER3 35-278 nM, global 1:1 fit; kdis Error 1.16E-04. On the procedure:
as §4

The target of assay [9] is T3, His-tagged human HER3. In words: BLI (Octet QK384), antibody on anti-human IgG capture tips, His-tagged human HER3 35-278 nM, global 1:1 fit; kdis Error 1.00E-04. On the procedure: as §4
The target in assay [10] is T3, His-tagged human HER3. In words: BLI (Octet QK384), antibody on anti-human IgG capture tips, His-tagged human HER3 in solution, global 1:1 fit, R^2 = 0.9954, kon Error 4.57E+03; Response 0.0786 / 0.1929 / 0.3283 / 0.5147 at 35 / 69 / 139 / 278 nM. The protocol:
as §4

The target of assay [11] is T3, His-tagged human HER3. The assay can be described thus: BLI (Octet QK384), antibody on anti-human IgG capture tips, His-tagged human HER3 in solution, global 1:1 fit, R^2 = 0.9951, kon Error 5.36E+03; Response 0.0037 / 0.1082 / 0.2868 / 0.3903 at 35 / 69 / 139 / 278 nM. The protocol: as §4

Where two headings read alike, the source gives them in different places.

B1: anti-HER3 clone 4-35-B2 IgG1 (antibody, V domains shown)
VH: EIQLQQSGPELVKPGASVKVSCKASGYSFTDYNMYWVKQSHGKSLEWIGHINPYNGGTTYNQKFKGRATLTVDKSSSTAFMHLNSLTSEDSAVYFCVSLRWGAMDYWGQGTSVTVSS
VL: QIVLTQSPALMSASPGEKVTMTCSASSSVSYMYWYQQKPRSSPKPWIYLTSNLASGVPARFSGSGSGTSYSLTISSMEAEDAATYYCQQWNSNPYTFGGGTKLEIKR
notes: Human-mouse chimeric IgG1/kappa
For B1, the “% Parent (HE3 positive)” value in [1] and in assay [2] was 43.2% throughout. Moreover, the binding result with human EGFR, in the assay with rat HER3, with mouse HER3 and in the assay with human HER2 was “binds” each time. Further, the Kd in the assay with His-tagged human HER3 [3] was 80.9 nM.

B2: anti-HER3 clone 10D1_c93 IgG1 (antibody, V domains shown)
VH: DVQLQEWGAGLLKPSETLSLTCAVTGYSITSGYSWHWIRQFPGNGLEWIGSIHYSGGTNYNPSLKSRITISRDTSKNQFSLRLSSVTAADTAVYFCARMTTAPRYPFDYWGQGTLVTVSS
VL: DIVMTQSPSSLSASVGDRVTITCKASQIVGSNVAWYQQKPGKSPKPLIYSASYLYSDVPSRFSGSGSGTDFTMTISSLQPEDVATYYCQQYSSHPLTFGPGTKVEIKR
notes: Humanised 10D1 variant, IgG1/kappa
Consider B2, for which the Kd in the assay with His-tagged human HER3 [3] was < 0.001 nM. The same molecule had a kon with His-tagged human HER3 [4] of 188000 M⁻¹ s⁻¹. The koff with His-tagged human HER3 [5] was < 1e-07 s⁻¹.

B3: anti-HER3 clone 10D1_c87 IgG1 (antibody, V domains shown)
VH: DVQLQEWGAGLLKPSETLSLTCAVTGYSITSGYSWHWIRQFPGNGLEWIGSIHYSGGTNYNPSLKSRITISRDTSKNQFSLRLSSVTAADTAVYFCARMTTAPRYPFDYWGQGTLVTVSS
VL: DIVMTQSPSSLSASVGDRVTITCKASQIVGSNVAWYQQMPGKSPEPLIYSASYLYSDVPSRFSGSGSGTDFTMTISSLQPEDVATYYCQQYSSHPLTFGPGTKVEIKR
notes: as for B2
For the molecule B3, the Kd in the assay with His-tagged human HER3 [3] is < 0.001 nM. Further, in the assay with His-tagged human HER3 [5], the koff is < 1e-07 s⁻¹. The same molecule registered a kon with His-tagged human HER3 [6] of 188000 M⁻¹ s⁻¹.

B4: anti-HER3 clone 10D1_c85o2 IgG1 (antibody, V domains shown)
VH: DVQLQEWGAGLLKPSETLSLTCAVTGYSITSGYSWHWIRQFPGKGLEWIGSIRYSGGTNYNPSLKSRITISRDTSKNQFSLKLGSVTAADTAVYFCARGTTAPRYPFDYWGQGTLVTVSS
VL: DIVMTQSPSSLSASVGDRVTITCKASQIVGSNVAWYQQKPGKSPKPLIYSARYQYSGVPFRFSGSGSGTDFTLTISSLQPEDVATYYCQQYSSHPLTFGPGTKVEIKR
notes: Humanised 10D1 variant, IgG1/kappa; also called 10D1_c8502
Take B4: the kon with His-tagged human HER3 [7] is 97400 M⁻¹ s⁻¹. Besides, the affinity with His-tagged human HER3 [3], expressed as Kd, was 17.3 nM. Also, the koff in the assay with His-tagged human HER3 [8] is 0.00168 s⁻¹.

B5: anti-HER3 clone 10D1_11B IgG1 (antibody, V domains shown)
VH: DVQLQEWGAGLLKPSETLSLTCAVYGYSITSGYSWHWIRQPPGKGLEWIGSIHYSGGTNYNPSLKSRVTISRDTSKNQFSLKLSSVTAADTAVYYCARMTTAPRYPFDYWGQGTLVTVSS
VL: DIVMTQSPSSLSASVGDRVTITCKASQIVGSNVAWYQQKPGKSPKPLIYSASYGYSDVPSRFSGSGSGTDFTLTISSLRPEDVATYYCQQYSSHPLTFGPGTKVEIKR
notes: Humanised 10D1 variant, IgG1/kappa; also called v11b78L; C78 v11b
In the assay with His-tagged human HER3 [9], B5 yielded a koff of 6.01e-05 s⁻¹. In addition, binding with His-tagged human HER3 [3] was characterised by a dissociation constant (Kd) of 0.41 nM. The molecule further yielded a kon with His-tagged human HER3 [10] of 147000 M⁻¹ s⁻¹.

B6: anti-HER3 clone 10D1_c76 IgG1 (antibody, V domains shown)
VH: DVQLQEWGAGLLKPSETLSLTCAVTGYSITSGYSWHWIRQFPGNGLEWIGSIHYSGGTNYNPSLKSRITISRDTSKNQFSLKLSSVTAADTAVYFCARMTTAPRYPFDYWGQGTLVTVSS
VL: DIVMTQSPSSLSASGGDRVTITCKASQIVGYNVAWYQQKPGKSPKPLIYSASYLYSDVPSRFSASGSGTDFTLTISSLQPEDVAEYFCQQYSSHPLTFGPGTKVEIKR
notes: as for B2
Turning to B6, the kon with His-tagged human HER3 [11] amounted to 148000 M⁻¹ s⁻¹. For the same molecule, the Kd with His-tagged human HER3 [3] is < 0.001 nM. Also, the koff with His-tagged human HER3 [5] was < 1e-07 s⁻¹.
